# B1: Metallothionein expression activator (Saccharomyces cerevisiae), P21192 (parent)
# chain: MDNVVDPWYINPSGFAKDTQDEEYVQHHDNVNPTIPPPDNYILNNENDDGLDNLLGMDYYNIDDLLTQELRDLDIPLVPSPKTGDGSSDKKNIDRTWNLGDENNKVSHYSKKSMSSHKRGLSGTAIFGFLGHNKTLSISSLQQSILNMSKDPQPMELINELGNHNTVKNNNDDFDHIRENDGENSYLSQVLLKQQEELRIALEKQKEVNEKLEKQLRDNQIQQEKLRKVLEEQEEVAQKLVSGATNSNSKPGSPVILKTPAMQNGRMKDNAIIVTTNSANGGYQFPPPTLISPRMSNTSINGSPSRKYHRQRYPNKSPESNGLNLFSSNSGYLRDSELLSFSPQNYNLNLDGLTYNDHNNTSDKNNNDKKNSTGDNIFRLFEKTSPGGLSISPRINGNSLRSPFLVGTDKSRDDRYAAGTFTPRTQLSPIHKKRESVVSTVSTISQLQDDTEPIHMRNTQNPTLRNANALASSSVLPPIPGSSNNTPIKNSLPQKHVFQHTPVKAPPKNGSNLAPLLNAPDLTDHQLEIKTPIRNNSHCEVESYPQVPPVTHDIHKSPTLHSTSPLPDEIIPRTTPMKITKKPTTLPPGTIDQYVKELPDKLFECLYPNCNKVFKRRYNIRSHIQTHLQDRPYSCDFPGCTKAFVRNHDLIRHKISHNAKKYICPCGKRFNREDALMVHRSRMICTGGKKLEHSINKKLTSPKKSLLDSPHDTSPVKETIARDKDGSVLMKMEEQLRDDMRKHGLLDPPPSTAAHEQNSNRTLSNETDAL
# Variants of: B1
# Settings: with cbk1_yeast CBK1, P53894
# Chain of cbk1_yeast CBK1, P53894 (P53894 whole entry): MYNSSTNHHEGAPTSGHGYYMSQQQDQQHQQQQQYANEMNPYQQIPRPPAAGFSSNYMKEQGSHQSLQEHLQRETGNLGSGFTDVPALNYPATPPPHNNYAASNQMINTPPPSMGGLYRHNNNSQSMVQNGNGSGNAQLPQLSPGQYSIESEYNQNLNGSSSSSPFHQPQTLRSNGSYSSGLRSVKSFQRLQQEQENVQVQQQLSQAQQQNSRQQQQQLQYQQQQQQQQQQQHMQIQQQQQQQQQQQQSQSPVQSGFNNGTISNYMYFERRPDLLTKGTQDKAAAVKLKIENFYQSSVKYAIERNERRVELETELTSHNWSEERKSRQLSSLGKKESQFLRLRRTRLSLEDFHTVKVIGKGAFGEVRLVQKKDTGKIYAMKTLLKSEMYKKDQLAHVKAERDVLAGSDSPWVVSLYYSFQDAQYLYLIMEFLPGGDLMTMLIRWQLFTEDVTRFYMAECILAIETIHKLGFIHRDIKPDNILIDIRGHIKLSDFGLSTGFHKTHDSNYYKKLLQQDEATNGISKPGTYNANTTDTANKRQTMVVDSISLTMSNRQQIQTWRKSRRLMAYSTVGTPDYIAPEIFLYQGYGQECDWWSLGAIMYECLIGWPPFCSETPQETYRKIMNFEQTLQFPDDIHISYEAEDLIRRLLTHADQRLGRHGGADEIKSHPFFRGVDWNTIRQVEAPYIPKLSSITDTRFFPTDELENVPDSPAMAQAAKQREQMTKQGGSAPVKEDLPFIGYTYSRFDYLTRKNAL
row,Variant,effect of a mutation on the interaction
1,S113A;H117A;S137A,disrupting interaction
2,S113A;S122A;S137A,disrupting interaction

# Variants of: B1
# Settings: with xpo1_yeast CRM1, P30822
row,Variant,effect of a mutation on the interaction
1,F127V,decreasing interaction

# Variants of: B1
# Settings: with xpo1_yeast CRM1, P30822
# Remark: another data set of the same source
row,Variant,effect of a mutation on the interaction
1,F127V,disrupting interaction
2,S122D,decreasing interaction
3,S122D;S137D,disrupting interaction
4,S137D,decreasing interaction
